Data from article PMC10509167, “Identification and characterization of endo-α-, exo-α-, and exo-β-D-arabinofuranosidases degrading lipoarabinomannan and arabinogalactan of mycobacteria” (Nature Communications, 2023).

B1: ExoMA1 (MIAR_33200) (Microbacterium arabinogalactanolyticum) (protein)
chain: MPDLNSIAALRQVQTRSISPENFDGTAGGGGRATEGTGADCARDLGPGWKISPSVDIKAGETFELASIEGAGKITHIWITTHTDNWRTLILRAFWDGADEPAVEVPYGDFFCNGWGVFAQVNSQAIAANPHGGFNSYWPMPFRDGARLTIENTSVVDVRVYYQVTYEIGGDHSNDAYFHAQWRRSNPLEELTPHVILEGIEGEGHYVGTYIAWGVNSNGWWGEGEIKFYLDDDTDHPTICGTGTEDYFGGAWNFDIPGKGYTEFSTPYLGMPQVIRPDGLYVSQQRFGMYRWHLQDPIHFATGIPKVDIQALGWRSGWRYLPLRDDIASTAMFYLDRPTARRPKSPSADDMEVHLGTAPVPDLGATPPRV
notes: dodecamer
B2: ExoMA2 (MIAR_33170) (Microbacterium arabinogalactanolyticum) (protein)
chain: SRRARRIPHTAESVAFPLGGIGTGNVSLGARGELRDWEFENLPDKGRLNPRSFFAIHAAPQGGPSATRVLEARSSGRHDRDAGYGFDELAGLPRLDSAGLHGEYPVVDIDFTDATLPVTVSLHAFTPLVPLDADASGIPAAVLRYRVVNPGDAPVTVTVVGSMSHTAGRGAPGPDAPWGMRGTQSVRWRESDGIRGLDFDIDLDHDDPGYGTMSLTTTDSSTTVKPQWVTSYWPDGARLFWNDLADDGLLAPEARLTLEDKPRGLFAERDADPDAPALTEEQMLAKLPRVRTGSLGIVHTLAPGEERDFEFVLAWSFPNRRRGWHGHIIFDDALEDGAPDLRDELGPIVRNHYAVRWPDAWAAAAQLHRDLPALEGATDAFVEELYGGSLDPVLADAVGANIAALRSTTCFVLESPTPELGDGPVFAAWEGSFDHGGSCEGTCTHVWSYAQTAAWLFPGLERSARRAEYLLETDESGAQKFRGNRIFGAPRWFIGPAVDGQLGTFLRLHREWRFCGDDEFLRELWPAAARTLDYAAREWDHDGDGLLDGEMHNTYDIEFHGVEPLSNIIHLAALRAGVRMAGHLGDTARAQEWALRADHVAAAIEGVLWNGEYYRQVIDDVDAHRYQYGDGVLSDQLLGQFHAFLGGLGYLLPEAHVRSALDAIVQHNHRGDLRDHESTQRVYALNDEGGLLLASWPEGGRPALPFVYADEVWTGIEHQVAVSLLFAGRYDDALRIERTLRARYDGAHRSPWNEIECGNHYARSLASWGLLIGASGAQWDAGARTLSFDPVLPGDARFLFTTATGWGGVEIGDDVITLRLHGGALDLDELRLRGEVAGRGIHLDAGETRTLTLT
notes: dimer

Experiments:
purified protein [1] = substrate: O=[N+]([O-])c1ccc(O[C@H]2O[C@H](CO)[C@@H](O)[C@@H]2O)cc1; assay: purified protein; type: biochemical, Microbacterium arabinogalactanolyticum; settings: 37 °C, 50 mM sodium acetate pH 5.5
purified protein [2] = substrate: O=[N+]([O-])c1ccc(O[C@@H]2O[C@H](CO)[C@@H](O)[C@@H]2O)cc1; assay: purified protein; type: biochemical, Microbacterium arabinogalactanolyticum; settings: 37 °C, 50 mM sodium phosphate pH 6.0

Row | Protein | Km (purified protein [1]) [µM] | kcat (purified protein [1]) [s⁻¹] | Km (purified protein [2]) [µM] | kcat (purified protein [2]) [s⁻¹]
1 | B1 | 2550 | 44.4 | – | –
2 | B2 | – | – | 2730 | 12.0
